B1: 6xHis-tagged PDZ1 domain of ZO-1 (aa 19-113) (domain or fragment)
chain: WEQHTVTLHRAPGFGFGIAISGGRDNPHFQSGETSIVISDVLKGGPAEGQLQENDRVAMVNGVSMDNVEHAFAVQQLRKSGKNAKITIRRKKKVQ
B2: 6xHis-tagged PDZ1 domain of ZO-3 (aa 5-96) (domain or fragment)
chain: TIWEQHTATLYKDPRRGFGIAVSGGHDRASGSVVVSDVVPGSPAEGRLRTGDHIVMVNGVSVENVTSAFAIQILKTCTKTANVTVKRPRRVQ
B3: 6xHis-tagged PDZ1 domain of ZO-2 (aa 4-100) (domain or fragment)
chain: VIWEQYTVTLQKDSKRGFGIAVSGGRDNPHFENGETSIVISDVLPGGPADGLLQENDRVVMVNGTPMEDVLHSFAVQQLRKSGKIAAIVVKRPRKVQ

The target of this assay is GST fusion protein with the cytoplasmic domain of claudin-1 (UniProt O88551). The experiment in a line: pull-down.
Chain of UniProt O88551 (O88551 whole entry, the tested form may be a part): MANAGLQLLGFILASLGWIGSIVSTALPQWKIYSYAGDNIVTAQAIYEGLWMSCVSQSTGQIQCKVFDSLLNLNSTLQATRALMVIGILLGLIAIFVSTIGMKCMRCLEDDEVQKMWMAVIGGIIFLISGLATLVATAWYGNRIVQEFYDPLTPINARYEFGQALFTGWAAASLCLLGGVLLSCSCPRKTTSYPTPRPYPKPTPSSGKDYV
As a reminder, the Kd is a measure of binding affinity in units of concentration. Consider B1, for which the Kd turned out to be 0.013 µM. In other words, the double-digit nanomolar range.

B2 returned a Kd of 0.018 µM.

Regarding B3, the Kd is 0.011 µM.
